In patent US5403737A, “Serine protease variants having peptide ligase activity” (priority 1993, dated 1995):

Assay: Esterase activity: hydrolysis of an activated ester substrate (Table III)
Assay type: biochemical
Conditions: ratio of the apparent second order rate constants (kcat/KM), Sbz versus pNA substrate
Experimental: Table III: Kinetic constants for the hydrolysis of an amide substrate (s-Ala-Ala-Pro-Phe-pNA) and for an activated ester substrate (s-Ala-Ala-Pro-Phe-Sbz). The ratio of esterase to amidase activities is the ratio of the apparent second order rate constants (kcat/KM). The aminolysis to hydrolysis ratio was investigated using the thiobenzyl ester substrate with 3.6 mM of the dipeptide Ala-Phe-amide as the nucleophile.
Kinetic Assays. The esterase and amidase activities were obtained from initial rate measurements using a Kontron Uvikon 860 spectrophotometer. The assay for esterase activity utilized the substrate s-Ala-Ala-Pro-Phe-Sbz at (25°±0.2° C.) in 100 mM Tris-HCl (pH 8.60), 4% (v/v) dimethylsulfoxide, 0.005% (v/v) Tween 80. With the non-cysteine containing proteases, DTNB (Ellman (1959), Arch. Biochem. Biophys., 82, 70-77) was added to a concentration of 37.5 μM to visualize the release of thiolbenzoate upon hydrolysis of the substrate. […] The amidase activities were measured under identical conditions by following the increase in absorbance at 412 nm upon hydrolysis of p-nitroanilide from s-Ala-Ala-Pro-Phe-pNA.

B1: wild type: wild type subtilisin (BPN') from Bacillus amyloliquefaciens (protein, UniProt P00782 108-382, looked up)
Subtilisin BPN': AQSVPYGVSQIKAPALHSQGYTGSNVKVAVIDSGIDSSHPDLKVAGGASMVPSETNPFQDNNSHGTHVAGTVAALNNSIGVLGVAPSASLYAVKVLGADGSGQYSWIINGIEWAIANNMDVINMSLGGPSGSAALKAAVDKAVASGVVVVAAAGNEGTSGSSSTVGYPGKYPSVIAVGAVDSSNQRASFSSVGPELDVMAPGVSIQSTLPGNKYGAYNGTSMASPHVAGAAALILSKHPNWTNTQVRSSLENTTTKLGDSFYYGKGLINVQAAAQ
esterase/amidase: 4.8
